From paper PMC11784217 come the findings set out here.

B1: wild-type US28 receptor with a C-terminal natural peptide tag (US28-NP) [human cytomegalovirus (HCMV)] / LgBiT-Gα12 [not stated] (parent)
chain 1: MTPTTTTAELTTEFDYDEDATPCVFTDVLNQSKPVTLFLYGVVFLFGSIGNFLVIFTITWRRRIQCSGDVYFINLAAADLLFVCTLPLWMQYLLDHNSLASVPCTLLTACFYVAMFASLCFITEIALDRYYAIVYMRYRPVKQACLFSIFWWIFAVIIAIPHFMVVTKKDNQCMTDYDYLEVSYPIILNVELMLGAFVIPLSVISYCYYRISRIVAVSQSRHKGRIVRVLIAVVLVFIIFWLPYHLTLFVDTLKLLKWISSSCEFERSLKRALILTESLAFCHCCLNPLLYVFVGTKFRQELHCLLAEFRQRLFSRDVSWYHSMSFSRRSSPSRRETSSDTLSDEVCRVSQIIP
chain 2: MSGVVRTLSRCLLPAEAGGARERRAGSGARDAEREARRRSRDIDALLARERRAVRRLVKILLLGAGESGKSTFLKQMRIIHGREFDQKALLEFRDTIFDNILKGSRVLVDARDKLGIPWQYSENEKHGMFLMAFENKAGLPVEPATFQLYVPALSALWRDSGIREAFSRRSEFQLGESVKYFLDNLDRIGQLNYFPSKQDILLARKATKGIVEHDFVIKKIPFKMVDVGGQRSQRQKWFQCFDGITSILFMVSSSEYDQVLMEDRRTNRLVESMNIFETIVNNKLFFNVSIILFLNKMDLLVEKVKTVSIKKHFPDFRGDPHRLEDVQRYLVQCFDRKRRNRSKPLFHHFTTAIDTENVRFVFHAVKDTILQENLKDIMLQ
B2: wild-type US28 receptor with a C-terminal natural peptide tag (US28-NP) [human cytomegalovirus (HCMV)] / LgBiT-Gαq [not stated] (parent)
chain 1: B1 chain 1
chain 2: MTLESIMACCLSEEAKEARRINDEIERQLRRDKRDARRELKLLLLGTGESGKSTFIKQMRIIHGSGYSDEDKRGFTKLVYQNIFTAMQAMIRAMDTLKIPYKYEHNKAHAQLVREVDVEKVSAFENPYVDAIKSLWNDPGIQECYDRRREYQLSDSTKYYLNDLDRVADPAYLPTQQDVLRVRVPTTGIIEYPFDLQSVIFRMVDVGGQRSERRKWIHCFENVTSIMFLVALSEYDQVLVESDNENRMEESKALFRTIITYPWFQNSSVILFLNKKDLLEEKIMYSHLVDYFPEYDGPQRDAQAAREFILKMFVDLNPDSDKIIYSHFTCATDTENIRFVFAAVKDTILQLNLKEYNLV

The variants in the first experiment derive from B1. The experiment is described as follows: NanoBiT nLuc complementation assay in live HEK-293 cells (Nano-Glo live cell assay), area under the curve. The conditions noted are these: with LgBiT-Gα12, 18 hours post-transfection media exchanged with serum-free DMEM, 6 hours later luciferase activity monitored for 60 minutes, parent: 2.2e+07, read off a plot.
As for chain 1 S218A, the response (Arbitrary Units) came to 6.8e+06.

With chain 1 D128A R129A Y130A, the response (Arbitrary Units) was determined as 2.8e+06.

On to chain 1 R225A, for which the response (Arbitrary Units) stood at 1.1e+07.

Take chain 1 S220A: the response (Arbitrary Units) was determined as 1.7e+07.

On to chain 1 K223A, for which the response (Arbitrary Units) was 8.9e+06.

Variants of B2 are the subject of another experiment. The experiment is described as above. The conditions noted are these: with LgBiT-Gαq, 18 hours post-transfection media exchanged with serum-free DMEM, 6 hours later luciferase activity monitored for 60 minutes, parent: 2.9e+07, read off a plot.
As to chain 1 K223A, the response (Arbitrary Units) stood at 1.7e+07.

As for chain 1 R225A, the response (Arbitrary Units) came to 1.6e+07.

For the variant chain 1 S220A, the response (Arbitrary Units) was found to be 3e+07.

Regarding chain 1 S218A, the response (Arbitrary Units) worked out at 1.8e+07.

For the variant chain 1 D128A R129A Y130A, the response (Arbitrary Units) was found to be 6e+06.
